Among the data in patent US20250011363A1, “OPTIMIZED SHORTENED PEPTIDE THAT BINDS TO ACETYLCHOLINE RECEPTOR, AND USE THEREOF” (SKINMED CO., LTD., priority 2021, published 2025) are Binding affinity and Binding affinity (RU) values, retold here.

The target in assay [1] is acetylcholine receptor. In words: SPR, peptide at 10 uM, AchR immobilized. Background: SPR reads the build-up and loss of mass on a sensor chip optically.
Assay [2] addresses acetylcholine receptor. Description: SPR, peptide at 10 uM on immobilised AchR.

Turning to KRCPWR [6mer-1-676], the Binding affinity in the assay with acetylcholine receptor [1] was 16 RU.
The molecule RKGITK [6mer-1-41] came in with a Binding affinity (RU) with acetylcholine receptor [2] of 122 RU.
In the assay with acetylcholine receptor [1], RKMEIR [6mer-1-672] gave a Binding affinity of 17 RU.
In turn, KRQYCK [6mer-1-44] displayed a Binding affinity (RU) with acetylcholine receptor [2] of 148 RU.
Turning to KKYEVR [6mer-1-686], the Binding affinity in the assay with acetylcholine receptor [1] was 25 RU.
Take RKSIQK [6mer-1-60]: in the assay with acetylcholine receptor [2], the Binding affinity (RU) was determined as 139 RU.
Take KREAER [6mer-1-690]: the Binding affinity in the assay with acetylcholine receptor [1] is 21 RU.
Turning to KRLISR [6mer-1-29], the Binding affinity (RU) in the assay with acetylcholine receptor [2] was determined as 124 RU.
Still for that read-out and setting: to RRVLYK [6mer-1-51] belongs 127 RU; to RRWQTR [6mer-1-49], 149 RU.
For the molecule KKSISR [6mer-1-66], the Binding affinity (RU) in the assay with acetylcholine receptor [2] is 147 RU.
For RKDEVR [6mer-1-688], in the assay with acetylcholine receptor [1], the Binding affinity amounted to 33 RU.
On the same count and under the same terms, to KKDWNR [6mer-1-670] belongs 11 RU.
For the molecule RRQQTK [6mer-1-38], in the assay with acetylcholine receptor [2], the Binding affinity (RU) amounted to 126 RU.
In the case of RRGIQR [6mer-1-56], the Binding affinity (RU) with acetylcholine receptor [2] was 137 RU.
On the same count and under the same terms, under RRWFTK [6mer-1-62] stands 133 RU; under KRRLLK [6mer-1-47], 149 RU.
Consider KKIWKR [6mer-1-675], for which the Binding affinity with acetylcholine receptor [1] came to 21 RU.
RRESWK [6mer-1-685]: in the assay with acetylcholine receptor [1], the Binding affinity worked out at 14 RU.
In the assay with acetylcholine receptor [2], KKWVLR [6mer-1-37] gave a Binding affinity (RU) of 121 RU.
The molecule KKHCNR [6mer-1-696] gave a Binding affinity with acetylcholine receptor [1] of 18 RU.
Take KRLYCR [6mer-1-31]: the Binding affinity (RU) in the assay with acetylcholine receptor [2] came out at 121 RU.
For KKNMVR [6mer-1-671], the Binding affinity in the assay with acetylcholine receptor [1] amounted to 11 RU.
In the assay with acetylcholine receptor [2], KKWVSR [6mer-1-63] displayed a Binding affinity (RU) of 148 RU.
KRCPVR [6mer-1-689] returned a Binding affinity with acetylcholine receptor [1] of 11 RU.
KRLYQR [6mer-1-46]: the Binding affinity (RU) with acetylcholine receptor [2] was 142 RU.
KKAANK [6mer-1-666] displayed a Binding affinity with acetylcholine receptor [1] of 18 RU.
Same read-out and setting: to RKATVK [6mer-1-668] belongs 17 RU.
Regarding RKQFTK [6mer-1-64], in the assay with acetylcholine receptor [2], the Binding affinity (RU) worked out at 154 RU.
RKNTHK [6mer-1-692] returned a Binding affinity in the assay with acetylcholine receptor [1] of 22 RU.
Still for that read-out and setting: under KRNMAK [6mer-1-669] stands 23 RU.
In the assay with acetylcholine receptor [2], RKWLYK [6mer-1-34] had a Binding affinity (RU) of 135 RU.
Regarding KKSRRR [6mer-1-65], in the assay with acetylcholine receptor [2], the Binding affinity (RU) is 121 RU.
Take KRMAAK [6mer-1-678]: in the assay with acetylcholine receptor [1], the Binding affinity came to 25 RU.
RKQYYK [6mer-1-57] showed a Binding affinity (RU) with acetylcholine receptor [2] of 139 RU.
The molecule KRDSPK [6mer-1-667] yielded a Binding affinity with acetylcholine receptor [1] of 32 RU.
Still for that read-out and setting: under RKPKAR [6mer-1-691] stands 31 RU.
As for KKDPPR [6mer-1-680], the Binding affinity in the assay with acetylcholine receptor [1] stood at 27 RU.
Regarding RKVYQK [6mer-1-39], the Binding affinity (RU) with acetylcholine receptor [2] came out at 139 RU.
As to KKVRTR [6mer-1-50], the Binding affinity (RU) with acetylcholine receptor [2] was determined as 139 RU.
In the assay with acetylcholine receptor [2], KKRIQR [6mer-1-42] yielded a Binding affinity (RU) of 139 RU.
As for RKIDMK [6mer-1-693], the Binding affinity with acetylcholine receptor [1] amounted to 22 RU.
Turning to RKLQLK [6mer-1-68], the Binding affinity (RU) with acetylcholine receptor [2] turned out to be 153 RU.
For KKEWKK [6mer-1-681], the Binding affinity with acetylcholine receptor [1] stood at 32 RU.
Still for that read-out and setting: under KRADVK [6mer-1-695] stands 13 RU.
On to KRLQCK [6mer-1-59], for which the Binding affinity (RU) with acetylcholine receptor [2] was 145 RU.
KRDSMR [6mer-1-683] displayed a Binding affinity in the assay with acetylcholine receptor [1] of 16 RU.
Same read-out and setting: under RRPTNR [6mer-1-697] stands 13 RU.
Consider RRRFLR [6mer-1-52], for which the Binding affinity (RU) with acetylcholine receptor [2] is 131 RU.
As for RKGQCR [6mer-1-32], the Binding affinity (RU) with acetylcholine receptor [2] came to 121 RU.
In the assay with acetylcholine receptor [1], RKHPKK [6mer-1-674] displayed a Binding affinity of 32 RU.
In the assay with acetylcholine receptor [2], KRSYCK [6mer-1-61] had a Binding affinity (RU) of 121 RU.
Take KKKDIR [6mer-1-682]: the Binding affinity with acetylcholine receptor [1] was determined as 30 RU.
In the case of RKWQQK [6mer-1-36], in the assay with acetylcholine receptor [2], the Binding affinity (RU) is 124 RU.
In the assay with acetylcholine receptor [2], KRSIYR [6mer-1-55] yielded a Binding affinity (RU) of 133 RU.
Regarding RRQVRR [6mer-1-30], the Binding affinity (RU) with acetylcholine receptor [2] came out at 154 RU.
Molecule KRNNDR [6mer-1-684] yielded a Binding affinity with acetylcholine receptor [1] of 20 RU.
In the case of RRAMPK [6mer-1-673], the Binding affinity with acetylcholine receptor [1] worked out at 16 RU.
KRVIQR [6mer-1-53] had a Binding affinity (RU) with acetylcholine receptor [2] of 123 RU.
RKGLTK [6mer-1-45] registered a Binding affinity (RU) with acetylcholine receptor [2] of 145 RU.
On to KKSYCR [6mer-1-33], for which the Binding affinity (RU) in the assay with acetylcholine receptor [2] amounted to 154 RU.
RRSYTR [6mer-1-67] returned a Binding affinity (RU) in the assay with acetylcholine receptor [2] of 135 RU.
As to KKCCFR [6mer-1-677], the Binding affinity with acetylcholine receptor [1] came to 22 RU.
For RKSVTR [6mer-1-58], the Binding affinity (RU) with acetylcholine receptor [2] was 126 RU.
Same read-out and setting: under KRSQYK [6mer-1-40] stands 121 RU.
RKYTKR [6mer-1-694] had a Binding affinity with acetylcholine receptor [1] of 27 RU.
Turning to RRGRQR [6mer-1-35], in the assay with acetylcholine receptor [2], the Binding affinity (RU) was determined as 136 RU.
For the molecule KKAEER [6mer-1-679], in the assay with acetylcholine receptor [1], the Binding affinity stood at 30 RU.
In the assay with acetylcholine receptor [1], RREWIK [6mer-1-687] came in with a Binding affinity of 23 RU.
In the assay with acetylcholine receptor [2], RRRVCK [6mer-1-54] displayed a Binding affinity (RU) of 144 RU.
RRWVRR [6mer-1-48]: in the assay with acetylcholine receptor [2], the Binding affinity (RU) amounted to 124 RU.
